Measured values as given in US20230242662A1.

Columns and labels:
[1] = molecular target: human CD46 expressed on 293 cells (human) (UniProt P15529); assay: FACS, 293 cells expressing human CD46, pH 7.4
[2] = molecular target: CD46 on Colo205 cells (human) (UniProt P15529); assay: FACS, Colo205 cells that express CD46, pH 7.4
[3] = molecular target: CD46 on Colo205 cells (human) (UniProt P15529); assay: FACS, Colo205 cells that express CD46; EC50 at pH 7.4 over EC50 at pH 6.0
[4] = molecular target: human CD46 expressed on 293 cells (human) (UniProt P15529); assay: FACS, 293 cells expressing human CD46, pH 6.0
[5] = molecular target: human CD46 expressed on 293 cells (human) (UniProt P15529); assay: FACS, 293 cells expressing human CD46; EC50 at pH 7.4 over EC50 at pH 6.0
[6] = molecular target: CD46 on Colo205 cells (human) (UniProt P15529); assay: FACS, Colo205 cells that express CD46, pH 6.0
[7] = molecular target: human CD46 expressed on 293 cells (human) (UniProt P15529); assay: cell-based or functional assay
[8] = molecular target: CD46 on Colo205 cells (human) (UniProt P15529); assay: cell-based or functional assay
[9] = molecular target: recombinant human CD46 antigen (human) (UniProt P15529); assay: ELISA, coated human CD46; EC50 at pH 7.4 over EC50 at pH 6.0
[10] = molecular target: recombinant human CD46 antigen (human) (UniProt P15529); assay: pH range ELISA (pH 5.5 to 7.4), coated human CD46

B1: Benchmark (BM) BA-133-00-01 (antibody, V domains shown)
VH: QVQLQESGPGLVKPSETLSLTCTVSGGSVSSYDISWIRQPPGKGLEWIGVIWTDGGTNYNSAFMSRVTISVDTSKNQFSLKLSSVTAADTAVYYCARVYDGYPWFAYWGQGTLVTVSS
VL: DIQMTQSPSSLSASVGDRVTITCRASQGISNYLNWYQQKPGKAPKLLIYYTSSLHSGVPSRFSGSGSGTDFTLTISSLQPEDFATYYCQQYIKLPWTFGGGTKLEIKR
In the case of B1, the EC50 [1] is reported as 0.368 µg/mL, the EC50 [2] is reported as 0.513 µg/mL and the Ratio (pH 7.4/6.0) [3] is reported as 2.6. It also gave an EC50 [4] of 0.147 µg/mL, a Ratio (pH 7.4/6.0) [5] of 2.5 and an EC50 [6] of 0.201 µg/mL. For the same binder, the IC50 of in vitro cell killing of 293 cells expressing human CD46, pH 6.0 (test article ADC, CellTiter-Glo) [7] was 15.8 ng/mL, the IC50 of in vitro cell killing of 293 cells expressing human CD46, pH 7.4 (test article ADC, CellTiter-Glo) [7] was 23.6 ng/mL and the Ratio (pH 7.4/6.0) of the killing IC50 on 293 cells expressing human CD46 [7] was 1.5. For the same binder, the IC50 of inhibition (cytotoxicity) of Colo205 cells that express CD46, pH 6.0 (test article ADC, CellTiter-Glo) [8] was 4.91 ng/mL, the IC50 of inhibition (cytotoxicity) of Colo205 cells that express CD46, pH 7.4 (test article ADC, CellTiter-Glo) [8] was 11.6 ng/mL and the Ratio (pH 7.4/6.0) of the cytotoxicity IC50 on Colo205 cells [8] was 2.37. For the same binder, the ratio (ph 7.4/pH 6.0) [9] was 1.31.

B2: BA-133-04-04 (antibody, V domains shown)
VH: EVQLVESGGGLVQPGGSLRLSCAASGGSVSSYDISWIRQSPSRGLEWLGVIWTDGGTNYNSAFMSRFTISRDDSKNTAYLQMNSLKTEDTAVYYCERVYDGYPWFAYWGQGTLVTVSS
VL: AIQLTQSPSSLSASVGDRVTITCRASQGISNYLNWYLQKPGQSPQLLIYYTSSLHEGVPDRFSGSGSGTDFTLKISRVEAEDVGVYYCQQYIKLPWTFGQGTKVEIK
B2 was tested, and the EC50 [1] was 0.647 µg/mL, the EC50 [2] was 0.96 µg/mL and the pH inflection point [10] was 6.7 pH. For the same binder, the Ratio (pH 7.4/6.0) [3] was 3.9, the EC50 [4] was 0.241 µg/mL and the Ratio (pH 7.4/6.0) [5] was 2.7. It also gave an EC50 [6] of 0.246 µg/mL, an IC50 of in vitro cell killing of 293 cells expressing human CD46, pH 6.0 (test article ADC, CellTiter-Glo) [7] of 13.7 ng/mL and an IC50 of in vitro cell killing of 293 cells expressing human CD46, pH 7.4 (test article ADC, CellTiter-Glo) [7] of 39.9 ng/mL. For the same binder, the Ratio (pH 7.4/6.0) of the killing IC50 on 293 cells expressing human CD46 [7] was 2.91, the IC50 of inhibition (cytotoxicity) of Colo205 cells that express CD46, pH 6.0 (test article ADC, CellTiter-Glo) [8] was 6.58 ng/mL and the IC50 of inhibition (cytotoxicity) of Colo205 cells that express CD46, pH 7.4 (test article ADC, CellTiter-Glo) [8] was 56 ng/mL. The Ratio (pH 7.4/6.0) of the cytotoxicity IC50 on Colo205 cells [8] was 8.51 and the ratio (ph 7.4/pH 6.0) [9] was 3.63.

B3: BAP133-2-03-03-SL (antibody, V domains shown)
VH: EVQLVESGGGLVQPGGSLRLSCAASGGSVSSYDISWIRQSPSRGLEWLGVIWTDGGTNYNSAFMSRFTISRDDSKNTAYLQMNSLKTEDTAVYYCERVYDGYPWFAYWGQGTLVTVSS
VL: AIQLTQSPSSLSASVGDRVTITCRASQGISNYLNWYLQKPGQSPQLLIYYTSSLHSGVPDRFSGSGSGTDFTLKISRVEAEDVGVYYCQQYIKLPWTFGQGTKVEIK
B3 was tested, and the EC50 [1] was 0.748 µg/mL, the EC50 [2] was 1.48 µg/mL and the pH inflection point [10] was 6.8 pH. It also gave a Ratio (pH 7.4/6.0) [3] of 4.4, an EC50 [4] of 0.336 µg/mL and a Ratio (pH 7.4/6.0) [5] of 2.2. For the same binder, the EC50 [6] was 0.341 µg/mL, the IC50 of in vitro cell killing of 293 cells expressing human CD46, pH 6.0 (test article ADC, CellTiter-Glo) [7] was 20.6 ng/mL and the IC50 of in vitro cell killing of 293 cells expressing human CD46, pH 7.4 (test article ADC, CellTiter-Glo) [7] was 90.4 ng/mL. It also gave a Ratio (pH 7.4/6.0) of the killing IC50 on 293 cells expressing human CD46 [7] of 4.38, an IC50 of inhibition (cytotoxicity) of Colo205 cells that express CD46, pH 6.0 (test article ADC, CellTiter-Glo) [8] of 33.3 ng/mL and an IC50 of inhibition (cytotoxicity) of Colo205 cells that express CD46, pH 7.4 (test article ADC, CellTiter-Glo) [8] of 253 ng/mL. It also gave a Ratio (pH 7.4/6.0) of the cytotoxicity IC50 on Colo205 cells [8] of 7.6 and a ratio (ph 7.4/pH 6.0) [9] of 3.23.

B4: BA-133-04-03 (antibody, V domains shown)
VH: EVQLVESGGGLVQPGGSLRLSCAASGGSVSSYDISWIRQSPSRGLEWLGVIWTDGGTNYNSAFMSRFTISRDDSKNTAYLQMNSLKTEDTAVYYCERVYDGYPWFAYWGQGTLVTVSS
VL: AIQLTQSPSSLSASVGDRVTITCRASQGISNYLNWYLQKPGQSPQLLIYYTSSLFSGVPDRFSGSGSGTDFTLKISRVEAEDVGVYYCQQYIKLPWTFGQGTKVEIK
B4 gave an EC50 [1] of 0.427 µg/mL, an EC50 [2] of 1.47 µg/mL and a Ratio (pH 7.4/6.0) [3] of 9.7. It also gave an EC50 [4] of 0.147 µg/mL, a Ratio (pH 7.4/6.0) [5] of 2.9 and an EC50 [6] of 0.151 µg/mL. The ratio (ph 7.4/pH 6.0) [9] was 2.23.

B5: BAP133-2-02-12 (antibody, V domains shown)
VH: EVQLVESGGGLVQPGGSLRLSCAASGGSVSSYDISWIRQSPSRGLEWLGVIWTDGGTNYNSAFMSRFTISRDDSKNTAYLQMNSLKTEDTAVYYCERVYDGYPWFAYWGQGTLVTVSS
VL: AIQLTQSPSSLSASVGDRVTITCRALQGISNYLNWYQQKPGKAPKLLIYYTSSLHSGVPSRFSGSGSGTEFTLTISSLQPDDFATYYCQQYIKLPWTFGQGTKVEIK
Binder B5 has an EC50 [1] of 2.23 µg/mL, an EC50 [2] of 3.63 µg/mL and a pH inflection point [10] of 6.58 pH. For the same binder, the Ratio (pH 7.4/6.0) [3] was 5.2, the EC50 [4] was 0.676 µg/mL and the Ratio (pH 7.4/6.0) [5] was 3.3. For the same binder, the EC50 [6] was 0.704 µg/mL and the ratio (ph 7.4/pH 6.0) [9] was 7.02.

B6: BA-133-04-01 (antibody, V domains shown)
VH: EVQLVESGGGLVQPGGSLRLSCAASGGSVSSYDISWIRQSPSRGLEWLGVIWTDGGTNYNSAFMSRFTISRDDSKNTAYLQMNSLKTEDTAVYYCERVYDGYPWFAYWGQGTLVTVSS
VL: AIQLTQSPSSLSASVGDRVTITCRASQWISNYLNWYLQKPGQSPQLLIYYTSSLHSGVPDRFSGSGSGTDFTLKISRVEAEDVGVYYCQQYIKLPWTFGQGTKVEIK
B6 showed an EC50 [1] of 1.34 µg/mL, an EC50 [2] of 1.66 µg/mL and a pH inflection point [10] of 6.61 pH. It also gave a Ratio (pH 7.4/6.0) [3] of 4.6, an EC50 [4] of 0.324 µg/mL and a Ratio (pH 7.4/6.0) [5] of 4.1. For the same binder, the EC50 [6] was 0.36 µg/mL and the ratio (ph 7.4/pH 6.0) [9] was 3.46.

B7: BA-133-04-02 (antibody, V domains shown)
VH: EVQLVESGGGLVQPGGSLRLSCAASGGSVSSYDISWIRQSPSRGLEWLGVIWTDGGTNYNSAFMSRFTISRDDSKNTAYLQMNSLKTEDTAVYYCERVYDGYPWFAYWGQGTLVTVSS
VL: AIQLTQSPSSLSASVGDRVTITCRASQGIANYLNWYLQKPGQSPQLLIYYTSSLHSGVPDRFSGSGSGTDFTLKISRVEAEDVGVYYCQQYIKLPWTFGQGTKVEIK
B7 was tested, and the EC50 [1] was 1.09 µg/mL, the EC50 [2] was 1.57 µg/mL and the pH inflection point [10] was 6.64 pH. The Ratio (pH 7.4/6.0) [3] was 4.2, the EC50 [4] was 0.32 µg/mL and the Ratio (pH 7.4/6.0) [5] was 3.4. The EC50 [6] was 0.371 µg/mL and the ratio (ph 7.4/pH 6.0) [9] was 3.8.
